In assay [1] the target is GFP-tagged human IGFLR1 on HEK293T cells (human). Briefly: radioligand binding.
The target in assay [2] is GFP-tagged mouse IGFLR1 on HEK293T cells (mouse). Briefly: radioligand binding.

Sequence of FLAG-IGFL1 (human insulin growth factor-like family member 1) (Q6UW32 24-110): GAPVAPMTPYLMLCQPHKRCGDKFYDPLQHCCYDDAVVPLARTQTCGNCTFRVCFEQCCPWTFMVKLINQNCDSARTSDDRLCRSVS
Sequence of FLAG-mIGFL (mouse insulin growth factor-like protein) (Q6B9Z0 24-140): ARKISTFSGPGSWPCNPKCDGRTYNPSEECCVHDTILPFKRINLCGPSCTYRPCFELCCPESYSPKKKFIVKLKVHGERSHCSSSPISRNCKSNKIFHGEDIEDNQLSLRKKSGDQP

Take “FLAG-IGFL1 (human insulin growth factor-like family member 1) (from UniProt Q6UW32 24-110) (ligand)”: the Kd (commonly the free concentration of one partner at which half of the binding sites on the other are occupied at equilibrium, for simple one-to-one binding) in assay [1] worked out at 0.31 nM. The substance “FLAG-mIGFL (mouse insulin growth factor-like protein) (from UniProt Q6B9Z0 24-140) (ligand)” displayed a Kd in assay [2] of 0.73 nM.
